Legend:
Assay in all cases: SPR (Biacore)
FcγRIIaR (human) = FcγRIIaR (human) (UniProt P12318)
[1] = target: human FcγRIIb receptor protein (R&D Systems) (human) (UniProt P31994)
[2] = target: human V158 FcγRIIIa receptor protein (6xHis and GST tags) (human) (UniProt P08637)
FcγRIIIaF (human) = FcγRIIIaF (human) (UniProt P08637)
[3] = target: human H131 FcγRIIa receptor protein (6xHis and GST tags) (human) (UniProt P12318)
[4] = target: human FcγRI receptor protein (R&D Systems) (human) (UniProt P12314)
Chain of human FcγRI receptor protein (R&D Systems) (human) (P12314 16-288 limits assumed): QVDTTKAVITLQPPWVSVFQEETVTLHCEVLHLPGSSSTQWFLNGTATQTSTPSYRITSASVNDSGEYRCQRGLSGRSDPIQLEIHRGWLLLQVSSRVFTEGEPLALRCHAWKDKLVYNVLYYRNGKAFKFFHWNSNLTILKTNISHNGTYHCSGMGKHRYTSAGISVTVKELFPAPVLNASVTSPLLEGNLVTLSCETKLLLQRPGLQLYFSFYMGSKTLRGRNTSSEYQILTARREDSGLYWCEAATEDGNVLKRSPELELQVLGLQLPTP

Chain of human V158 FcγRIIIa receptor protein (6xHis and GST tags) (human) (P08637 17-208 F176V limits assumed): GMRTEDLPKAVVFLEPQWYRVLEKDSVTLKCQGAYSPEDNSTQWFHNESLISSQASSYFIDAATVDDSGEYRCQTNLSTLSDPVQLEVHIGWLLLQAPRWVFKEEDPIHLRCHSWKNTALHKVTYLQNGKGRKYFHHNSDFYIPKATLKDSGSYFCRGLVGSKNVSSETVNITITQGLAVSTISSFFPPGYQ
Chain of human FcγRIIb receptor protein (R&D Systems) (human) (P31994 46-217 limits assumed): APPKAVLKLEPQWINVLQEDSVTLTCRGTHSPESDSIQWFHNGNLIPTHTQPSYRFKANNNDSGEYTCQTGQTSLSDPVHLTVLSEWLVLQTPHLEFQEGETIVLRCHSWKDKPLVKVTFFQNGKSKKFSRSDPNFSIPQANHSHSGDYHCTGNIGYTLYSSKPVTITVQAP
Chain of FcγRIIaR (human) (P12318 34-217 H167R limits assumed): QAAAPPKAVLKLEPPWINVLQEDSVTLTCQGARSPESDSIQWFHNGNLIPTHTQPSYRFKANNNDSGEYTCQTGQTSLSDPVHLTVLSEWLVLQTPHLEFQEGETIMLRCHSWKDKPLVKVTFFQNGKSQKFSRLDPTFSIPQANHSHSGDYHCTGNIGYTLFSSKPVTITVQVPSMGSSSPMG
Chain of human H131 FcγRIIa receptor protein (6xHis and GST tags) (human) (P12318 34-217 limits assumed): as the sequence (P12318 34-217 H167R limits assumed) above, with R134H counted along it
Chain of FcγRIIIaF (human) (P08637 17-208 limits assumed): as the sequence (P08637 17-208 F176V limits assumed) above, with V160F counted along it

Substance | Fold FcγRIIaR (FcγRIIaR (human)) [fold] | Fold FcγRIIb [1] [fold] | other results
L234K (antibody) | 0.00859 | 0.0147 | 
S267E/A327E (antibody) |  |  | Fold FcγRIIIaV [2]: 0.00894 fold
anti-CD19 WT IgG1 antibody (HuAM4G7 Fv, native human IgG1 Fc) |  |  | Fold FcγRIIIaF (FcγRIIIaF (human)): 1 fold
S267E/A327D (antibody) |  |  | Fold FcγRIIIaV [2]: 0.00199 fold
G236S (antibody) |  |  | Fold FcγRIIIaV [2]: 0.00367 fold
G236V (antibody) |  | 0.0147 | 
G236R (antibody) | 0.00859 | 0.0147 | 
S267E/H268E/L328F (antibody) |  |  | Fold FcγRIIIaV [2]: 0.092 fold
G236K (antibody) | 0.00859 | 0.0147 | 
G236F (antibody) | 0.00859 | 0.0147 | 
L235N (antibody) |  | 0.147 | 
G237P (antibody) | 0.00859 | 0.0147 | 

More lines, main results first:

Fold FcγRIIaR (FcγRIIaR (human)) [fold] | Fold FcγRIIb [1] [fold] | Substance | other results
 | 0.00225 | G236T (antibody) | 
269 | 221 | anti-CD19 IgG1/2 ELLGG antibody with S267E/L328F | Fold FcγRIIaH [3]: 0.993 fold; Fold FcγRI [4]: 2.35 fold
0.00859 | 0.0147 | L235S (antibody) | 
0.00859 | 0.0147 | G237K (antibody) | 
0.00859 | 0.0147 | G237E (antibody) | 
 | 0.00585 | L235P (antibody) | 

Reference: patent US20170355766A1
